Measured values: publication PMC9723635
One block for each substance: values may come before it.

Tests used:
RBPMS-A WT [1] = assay: UV crosslinking; conditions: 4 uM protein, EMSA: 50 mM HEPES pH 7.2-7.9, 15 mM MgCl2, 25% glycerol, 5 mM DTT, 45 mM KCl, 5 ug tRNA, 20 fmol RNA, 25 min at 30 C, then 5 ug heparin 5 min at 30 C
RBPMS-A WT [2] = assay: EMSA; conditions: apparent Kd, Hill fit; tRNA and heparin present; EMSA: 50 mM HEPES pH 7.2-7.9, 15 mM MgCl2, 25% glycerol, 5 mM DTT, 45 mM KCl, 5 ug tRNA, 20 fmol RNA, 25 min at 30 C, then 5 ug heparin 5 min at 30 C; 4% …
[3] = biological target: recombinant RBPMS-A T/A (double mutant T113A and T118A) (UniProt Q93062); assay: AUC; sedimentation velocity, interference data, 40 000 rpm, 20°C, overnight; protein at 0.5 mg/ml in 20 mM HEPES, 500 mM KCl, 1 mM TCEP, pH 7.9; c(s) distributions by SEDFIT; self-association into dimers and higher-order oligomers
[4] = biological target: recombinant wild-type RBPMS-A (RNA Binding Protein with Multiple Splicing, canonical isoform A) (UniProt Q93062); assay: as above
[5] = biological target: truncated RBPMS-A T/E (amino acids 1-122, T113E and T118E), the sample used for NMR (UniProt Q93062); assay: SEC-MALS; 50 μl at ~2 mg/ml on Superdex 75 10/300 GL increase, 10 mM HEPES pH 6.8, 50 mM KCl, 0.5 ml/min; self-association (dimer)

Substance: Tpm1 UV-crosslinking RNA
binding signal (% (reference)) (RBPMS-A WT [1]; no nuclear extract): 100
binding signal (% (reference)) (RBPMS-A WT [1]; with 20% HeLa nuclear extract): 100

Substance: Tpm1 exon 3 upstream intron EMSA RNA (three tandem CAC motifs)
Kd (RBPMS-A WT [2]): 213 nM

stoichiometry N [3]: 2
Substance: recombinant RBPMS-A T/A (double mutant T113A and T118A) (from UniProt Q93062 2-196) (natural protein)

stoichiometry N [4]: 2
Substance: recombinant wild-type RBPMS-A (RNA Binding Protein with Multiple Splicing, canonical isoform A) (from UniProt Q93062 2-196) (natural protein)

stoichiometry N [5]: 2
Substance: truncated RBPMS-A T/E (amino acids 1-122, T113E and T118E), the sample used for NMR (from UniProt Q93062 1-122) (domain or fragment)
